How the values were obtained:
pH4.0-treated TTR [1] = target: T1, pH4.0-treated TTR (human, UniProt P02766 21-147); experiment: ELISA, pH4-TTR captured on anti-His coated plate
[2] = target: recombinant human TTR F87M/L110M (human, UniProt P02766 21-147); experiment: SPR, mAb captured on anti-mouse IgG chip, TTR F87M/L110M as analyte
pH4.0-treated TTR [3] = target: T1, pH4.0-treated TTR; experiment: sandwich ELISA on pH4-TTR (the table prints 14.6 for 6C1)
pH4.0-treated TTR [4] = target: T1, pH4.0-treated TTR; experiment: sandwich ELISA (pH4-TTR)

B1: 6C1 (antibody, V domains shown)
VH: EVQLVESGGGLVQPGGSLKLSCAASGFTFSNYYMSWVRQTPEKRLEWVAYISIDGNNIYHPDSVKGRFTISRDNAKNTLYLQMSSLKSEDTAMYYCARDSDYGYFDVWGTGTTVTVSS
VL: DVLMTQTPLSLPVSLGDQASISCRSSQSIVHSNGNTYLEWYLQKRGQSPKLLIYKVSKRFSGVPDRFSGSGSGTDFILKISRVEAEDLGVYYCFQGSHVPLTFGGGTKLELK
Q: How did the Kd (pH4.0-treated TTR [1]) turn out when B1 was run?
A: 16 nM

Q: What about the Kd [2] of the same binder?
A: 9.01 nM

Q: And the koff [2]?
A: 0.000415 s⁻¹

Q: What about the kon [2] of the same binder?
A: 46100 M⁻¹ s⁻¹

Q: And the Kd (pH4.0-treated TTR [3])?
A: 14.5 nM

Q: And the Kd (pH4.0-treated TTR [4])?
A: 14.6 nM
